Abundance fitness data for 159 variants are collected here from the Human Domainome abundance scans (Beltran et al. 2025).

B1: Lysine-specific demethylase 5C, residues 319 to 373; numbered along this chain, P41229 (parent)
chain: AQFIESYVCRMCSRGDEDDKLLLCDGCDDNYHIFCLLPPLPEIPKGVWRCPKCVM
B2: Tripartite motif-containing protein 49C, residues 87 to 133; numbered along this chain, P0CI26 (parent)
chain: SSEEQMCGTHRETKKIFCEVDRSLLCLLCSSSQEHRYHRHRPIEWAA

± gives the uncertainty stated by the source.

Variants of B1 are the subject of the first data set. As to the kind of experiment: abundance fitness (aPCA) (normalised: wild type 0, dead -1); higher = more abundant; growth selection in yeast, the domain comes from the species named. The settings on record: Homo sapiens.
Take P41I: the abundance fitness is -0.134 ± 0.47.
P41T: the abundance fitness is -0.1 ± 0.2.
As to P41F, the abundance fitness was -0.261 ± 0.15.
P41C: the abundance fitness was -0.185 ± 0.13.
The same measure, in the same setting: under P41N stands -0.157 ± 0.23.
Same read-out and setting: under P41E stands -0.278 ± 0.19; under P41A, -0.134 ± 0.13; under P41V, -0.051 ± 0.13.
With P41S, the abundance fitness turned out to be 0.047 ± 0.094.
Still for that read-out and setting: under P41R stands 0.126 ± 0.083; under P41W, -0.36 ± 0.13; under P41L, 0.135 ± 0.1.
Still for that read-out and setting: under P41K stands -0.092 ± 0.23; under P41G, -0.078 ± 0.097.
Same read-out and setting: under P41M stands -0.55 ± 0.24.
With P41Q, the abundance fitness is -0.051 ± 0.21.
For P39Q, the abundance fitness is -0.276 ± 0.16.
Turning to P39G, the abundance fitness was -0.217 ± 0.12.
The same measure, in the same setting: under P39T stands -0.599 ± 0.17; under P39K, 0.148 ± 0.17; under P39N, -0.045 ± 0.17.
Take P39F: the abundance fitness was -0.667 ± 0.29.
The same measure, in the same setting: under P39D stands -0.233 ± 0.18.
Same read-out and setting: under P39Y stands -0.59 ± 0.21; under P39H, -0.787 ± 0.3; under P39A, -0.018 ± 0.11.
On the same count and under the same terms, under P39V stands -0.129 ± 0.11; under P39C, -0.264 ± 0.15; under P39S, 0.078 ± 0.1.
As for P39I, the abundance fitness was -0.076 ± 0.19.
Same read-out and setting: under P39M stands -0.292 ± 0.18; under P39W, -0.752 ± 0.27; under P39R, -0.164 ± 0.12.
With P39L, the abundance fitness is -0.473 ± 0.14.
On the same count and under the same terms, under P39E stands -0.025 ± 0.16; under M55G, -0.61 ± 0.24; under M55I, -0.346 ± 0.44.
Consider M55S, for which the abundance fitness was determined as 0.295 ± 0.24.
For the variant M55T, the abundance fitness is -0.183 ± 0.31.
For M55L, the abundance fitness was -0.154 ± 0.18.
As to M55V, the abundance fitness is 0.015 ± 0.17.
Same read-out and setting: under M55A stands -0.035 ± 0.41.
For M55P, the abundance fitness came to 0.446 ± 0.44.
On the same count and under the same terms, under E42M stands -0.37 ± 0.19; under E42V, -0.157 ± 0.14.
Still for that read-out and setting: under E42F stands -0.231 ± 0.17.
The same measure, in the same setting: under E42L stands -0.431 ± 0.11; under E42Q, 0.033 ± 0.27.
Consider E42T, for which the abundance fitness was found to be 0.068 ± 0.11.
The same measure, in the same setting: under E42Y stands -0.125 ± 0.16; under E42C, -0.245 ± 0.15; under E42S, -0.273 ± 0.094.
Consider E42I, for which the abundance fitness was 0.009 ± 0.27.
Still for that read-out and setting: under E42R stands -0.072 ± 0.091; under E42D, 0.043 ± 0.24; under E42H, -0.44 ± 0.19.
As to E42N, the abundance fitness was -0.034 ± 0.17.
Still for that read-out and setting: under E42G stands -0.157 ± 0.15; under E42K, -0.506 ± 0.17.
With E42A, the abundance fitness is -0.05 ± 0.15.
Same read-out and setting: under E42W stands -0.333 ± 0.14; under E42P, -0.611 ± 0.17; under V54E, -0.367 ± 0.22.
V54Y: the abundance fitness was -0.064 ± 0.26.
On the same count and under the same terms, under V54L stands -0.196 ± 0.15; under V54N, -0.262 ± 0.28.
Same read-out and setting: under V54G stands -0.27 ± 0.13.
Same read-out and setting: under V54C stands -0.097 ± 0.25; under V54S, -0.261 ± 0.14; under V54M, -0.145 ± 0.19.
Take V54K: the abundance fitness is -0.024 ± 0.21.
On the same count and under the same terms, under V54I stands 0.017 ± 0.12.
With V54Q, the abundance fitness is -0.54 ± 0.26.
V54H: the abundance fitness stood at 0.002 ± 0.29.
Still for that read-out and setting: under V54R stands -0.131 ± 0.13.
With V54F, the abundance fitness was -0.479 ± 0.24.
On the same count and under the same terms, under V54A stands -0.151 ± 0.11; under V54W, -0.836 ± 0.36; under P38W, -0.491 ± 0.16.
The same measure, in the same setting: under P38Y stands -0.416 ± 0.18; under P38K, -0.283 ± 0.26; under P38V, -0.1 ± 0.1.
On the same count and under the same terms, under P38C stands -0.166 ± 0.13; under P38A, -0.042 ± 0.12.
With P38M, the abundance fitness was -0.388 ± 0.15.
On the same count and under the same terms, under P38Q stands 0.178 ± 0.18; under P38G, -0.454 ± 0.13.
Same read-out and setting: under P38E stands -0.191 ± 0.19; under P38N, 0.041 ± 0.2; under P38H, -0.12 ± 0.17.
Still for that read-out and setting: under P38I stands -0.62 ± 0.31.
For the variant P38F, the abundance fitness is -0.564 ± 0.16.
Same read-out and setting: under P38D stands -0.35 ± 0.2; under P38T, -0.285 ± 0.2; under P38R, -0.116 ± 0.11.
Consider P38L, for which the abundance fitness is -0.237 ± 0.086.
On the same count and under the same terms, under I43F stands -0.21 ± 0.23; under I43W, -0.202 ± 0.14; under I43E, -0.057 ± 0.32.
Same read-out and setting: under I43M stands 0.156 ± 0.14; under I43Q, 0.076 ± 0.14.
On the same count and under the same terms, under I43T stands -0.467 ± 0.17; under I43P, -0.307 ± 0.17; under I43D, -0.462 ± 0.36.
For I43A, the abundance fitness was -0.281 ± 0.18.
On the same count and under the same terms, under I43C stands -0.314 ± 0.15; under I43K, -0.101 ± 0.14; under I43Y, -0.333 ± 0.16.
Same read-out and setting: under I43R stands -0.022 ± 0.092; under I43N, -0.222 ± 0.25.
I43G: the abundance fitness was -0.302 ± 0.12.
Same read-out and setting: under I43S stands -0.082 ± 0.11; under I43L, 0.101 ± 0.1; under I43H, -0.139 ± 0.17.
On the same count and under the same terms, under I43V stands -0.137 ± 0.15; under L36W, -0.237 ± 0.2.
As to L36I, the abundance fitness is -0.134 ± 0.18.
Same read-out and setting: under L36H stands 0.006 ± 0.26; under L36F, -0.26 ± 0.17; under L36V, -0.118 ± 0.1.
Still for that read-out and setting: under L36N stands -0.576 ± 0.25.
Same read-out and setting: under L36G stands -0.688 ± 0.17; under L36T, -0.16 ± 0.15; under L36P, -0.613 ± 0.2.
Take L36E: the abundance fitness was -0.551 ± 0.21.
For L36M, the abundance fitness is -0.275 ± 0.17.
The same measure, in the same setting: under L36S stands -0.157 ± 0.091; under L36D, -0.898 ± 0.32.
Same read-out and setting: under L36R stands -0.732 ± 0.14; under L36C, 0.232 ± 0.13.
The same measure, in the same setting: under L36Q stands -0.555 ± 0.25.
With L37N, the abundance fitness came to 0.172 ± 0.19.
The same measure, in the same setting: under L37Y stands -0.328 ± 0.15; under L37Q, -0.108 ± 0.16; under L37D, 0.122 ± 0.16.
On the same count and under the same terms, under L37T stands -0.03 ± 0.18.
The same measure, in the same setting: under L37S stands -0.012 ± 0.1.
As to L37R, the abundance fitness turned out to be 0.092 ± 0.088.
The same measure, in the same setting: under L37P stands -0.076 ± 0.16; under L37C, -0.137 ± 0.14.
The same measure, in the same setting: under L37H stands -0.023 ± 0.22; under L37V, -0.083 ± 0.13.
Still for that read-out and setting: under L37E stands -0.073 ± 0.14; under L37M, 0.054 ± 0.15; under L37F, -0.193 ± 0.17.
Turning to L37W, the abundance fitness came to 0.182 ± 0.12.
Still for that read-out and setting: under L37I stands -0.043 ± 0.22.
Consider L37G, for which the abundance fitness was -0.134 ± 0.14.
Same read-out and setting: under L37A stands -0.02 ± 0.13.
Still for that read-out and setting: under L37K stands 0.277 ± 0.15.

The variants in a further data set derive from B2. The description is as above. The following applies: Homo sapiens.
For SSEEQMCGTHRETKKIFCEVDRSLLCLLCSSSQEHRYHRHRPAEWAA [I43A], the abundance fitness turned out to be 0.405 ± 0.14.
As for SSEEQMCGTHRETKKIFCEVDRSFLCLLCSSSQEHRYHRHRPIEWAA [L24F], the abundance fitness was -0.069 ± 0.19.
Take SSEEQQCGTHRETKKIFCEVDRSLLCLLCSSSQEHRYHRHRPIEWAA [M6Q]: the abundance fitness was -0.273 ± 0.11.
Regarding SSEEQMCGTHRETKKIFCEVDRSLLCLLCSSSQEHRPHRHRPIEWAA [Y37P], the abundance fitness is -0.273 ± 0.076.
The same measure, in the same setting: under SSEEQMCGTHRETKKIFCEVDRSLLCLLCHSSQEHRYHRHRPIEWAA [S30H] stands -0.528 ± 0.25; under SSEEQMCGTHRETKKIFCEVDRSLLCLLCSSSVEHRYHRHRPIEWAA [Q33V], 0.01 ± 0.11.
Same read-out and setting: under SSEEQMCGTHKETKKIFCEVDRSLLCLLCSSSQEHRYHRHRPIEWAA [R11K] stands 0.073 ± 0.12.
The same measure, in the same setting: under SSEEQMCGTHRETKKIFCEVDRSLLCLLCSYSQEHRYHRHRPIEWAA [S31Y] stands -0.244 ± 0.21.
In the case of SSEEQMCGTHRETKKIMCEVDRSLLCLLCSSSQEHRYHRHRPIEWAA [F17M], the abundance fitness is -0.062 ± 0.11.
